Measured values reported in patent US20210395346A1 (SEOUL NATIONAL UNIVERSITY R AND DB FOUNDATION, published 2021).

How the values were obtained:
[1] = biological target: T1, SARS-CoV-2 RBD variant N501Y (UK) (SARS-CoV-2, UniProt P0DTC2 319-541); test: ELISA (FIG. 18C)
T1 construct: domain: RBD

[2] = biological target: T2, SARS-CoV-2 RBD variant N439K (Europe) (SARS-CoV-2, UniProt P0DTC2 319-541); test: ELISA (FIG. 18C)
T2 construct: domain: RBD

[3] = biological target: T3, SARS-CoV-2 RBD variant K417V, N439K (Europe) (SARS-CoV-2, UniProt P0DTC2 319-541); test: ELISA (FIG. 18C)
T3 construct: domain: RBD

[4] = biological target: T4, SARS-CoV-2 RBD variant K417N, E484K, N501Y (South Africa) (SARS-CoV-2, UniProt P0DTC2 319-541); test: ELISA (FIG. 18C)
T4 construct: domain: RBD

[5] = biological target: T5, SARS-CoV-2 RBD variant K417T, E484K, N501Y (Brazil) (SARS-CoV-2, UniProt P0DTC2 319-541); test: ELISA (FIG. 18C)
T5 construct: domain: RBD

[6] = biological target: T6, SARS-CoV-2 RBD variant L452R (California) (SARS-CoV-2, UniProt P0DTC2 319-541); test: ELISA (FIG. 18C)
T6 construct: domain: RBD

[7] = biological target: T7, SARS-CoV-2 RBD variant S477N (New York) (SARS-CoV-2, UniProt P0DTC2 319-541); test: ELISA (FIG. 18C)
T7 construct: domain: RBD

[8] = biological target: T8, SARS-CoV-2 RBD variant E484K (New York) (SARS-CoV-2, UniProt P0DTC2 319-541); test: ELISA (FIG. 18C)
T8 construct: domain: RBD

[9] = biological target: T9, SARS-CoV-2 RBD variant E484Q, L452R (India) (SARS-CoV-2, UniProt P0DTC2 319-541); test: ELISA (FIG. 18C)
T9 construct: domain: RBD

[10] = biological target: T1, SARS-CoV-2 RBD variant N501Y (UK); test: ELISA (FIG. 18B)
[11] = biological target: T2, SARS-CoV-2 RBD variant N439K (Europe); test: ELISA (FIG. 18B)
[12] = biological target: T3, SARS-CoV-2 RBD variant K417V, N439K …; test: ELISA (FIG. 18B)
[13] = biological target: T4, SARS-CoV-2 RBD variant K417N, E484K, …; test: ELISA (FIG. 18B)
[14] = biological target: T5, SARS-CoV-2 RBD variant K417T, E484K, …; test: ELISA (FIG. 18B)
[15] = biological target: T6, SARS-CoV-2 RBD variant L452R …; test: ELISA (FIG. 18B)
[16] = biological target: T7, SARS-CoV-2 RBD variant S477N (New York); test: ELISA (FIG. 18B)
[17] = biological target: T8, SARS-CoV-2 RBD variant E484K (New York); test: ELISA (FIG. 18B)
[18] = biological target: T9, SARS-CoV-2 RBD variant E484Q, L452R …; test: ELISA (FIG. 18B)
[19] = biological target: T1, SARS-CoV-2 RBD variant N501Y (UK); test: ELISA (FIG. 18A)
[20] = biological target: T2, SARS-CoV-2 RBD variant N439K (Europe); test: ELISA (FIG. 18A)
[21] = biological target: T3, SARS-CoV-2 RBD variant K417V, N439K …; test: ELISA (FIG. 18A)
[22] = biological target: T4, SARS-CoV-2 RBD variant K417N, E484K, …; test: ELISA (FIG. 18A)
[23] = biological target: T5, SARS-CoV-2 RBD variant K417T, E484K, …; test: ELISA (FIG. 18A)
[24] = biological target: T6, SARS-CoV-2 RBD variant L452R …; test: ELISA (FIG. 18A)
[25] = biological target: T7, SARS-CoV-2 RBD variant S477N (New York); test: ELISA (FIG. 18A)
[26] = biological target: T8, SARS-CoV-2 RBD variant E484K (New York); test: ELISA (FIG. 18A)
[27] = biological target: T9, SARS-CoV-2 RBD variant E484Q, L452R …; test: ELISA (FIG. 18A)
[28] = biological target: T1, SARS-CoV-2 RBD variant N501Y (UK); test: ELISA (FIG. 18E)
[29] = biological target: T2, SARS-CoV-2 RBD variant N439K (Europe); test: ELISA (FIG. 18E)
[30] = biological target: T3, SARS-CoV-2 RBD variant K417V, N439K …; test: ELISA (FIG. 18E)
[31] = biological target: T4, SARS-CoV-2 RBD variant K417N, E484K, …; test: ELISA (FIG. 18E)
[32] = biological target: T5, SARS-CoV-2 RBD variant K417T, E484K, …; test: ELISA (FIG. 18E)
[33] = biological target: T6, SARS-CoV-2 RBD variant L452R …; test: ELISA (FIG. 18E)
[34] = biological target: T7, SARS-CoV-2 RBD variant S477N (New York); test: ELISA (FIG. 18E)
[35] = biological target: T8, SARS-CoV-2 RBD variant E484K (New York); test: ELISA (FIG. 18E)
[36] = biological target: T9, SARS-CoV-2 RBD variant E484Q, L452R …; test: ELISA (FIG. 18E)

Measured: binding result

B1: A-2H4 antibody (format in FIG. 18 not stated) (antibody, V domains shown)
VH: QMQLVESGGGLVQPGRSLRLSCAASGFTFSVYGMHWVRQAPGKGLEWVAVISYDGSNKYYADSVKGRFSISRDNSKNTLYLQMNSLRGEDTAVYYCAKGGPRPVVKAYGELDYYGMDVWGQGTTVTVSS
VL: ELALTQPASVSGSPGQSITISCTGTSSDIGGYEYVSWYQQHPGKAPKLIIYDVRDRPSGISNRFSGSKSGNTASLIISSLQAGDEADYYCFSYTSSGTYVFGSATKVTVL
binds: [1] | [2] | [3] | [4] | [5] | [6] | [7] | [8] | [9]

B2: A-2F1 antibody (format in FIG. 18 not stated) (antibody, V domains shown)
VH: QVQLVQSGGGLIQPGGSLRLSCAASGVTVSSNYMSWVRQAPGKGLEWVSVIYSGGSTFYADSVKGRFTISRDNSKNTLYLQMNSLRAEDTAVYYCARDLMEAGGMDVWGQGSTVTVSS
VL: ELALTQPPSASGSPGQSVTISCTASSSDIGASNHVAWYQQNPGKAPKLMIYGVSGRPSGVPDRFSGSKSGNTASLTVSGLQAEDEADYYCSSYAGSNILIFGGGTKLTVL
binds: [10] | [11] | [12] | [13] | [14] | [15] | [16] | [17] | [18]

B3: A-1H4 antibody (format in FIG. 18 not stated) (antibody, V domains shown)
VH: EVQLVESGGGLVQPGRSLRLSCAASGFTVSSNYMSWVRQAPGKGLEWVSGIYSGGSTYYADSVKGRFTISRDNSKNTLYLQMNSLRAEDTAVYYCARDLQEAGAFDIWGQGTMVTVSS
VL: ELQLTQSPSFLSASVGDRVTITCRASQGISSYLAWYQQKPGKAPKLLIYAASTLQSGVPSRFSGSGSGTEFTLTISSLQPEDFATYYCQQLNSYPRLTFGGGTKVEIK
binds: [19] | [20] | [21] | [22] | [23] | [24] | [25] | [26] | [27]

B4: E-3G9 antibody (format in FIG. 18 not stated) (antibody, V domains shown)
VH: QMQLVQSGAEVKKPGASVKVSCKASGHTITSYYMHWVRQAPGQGLEWMGIINPSGGSTSYAQKFQGRVTMTRDTSTSTVYMELSSLRSEDTAVYYCAREGVWDSSGYSSFDYWGQGTLVTVSS
VL: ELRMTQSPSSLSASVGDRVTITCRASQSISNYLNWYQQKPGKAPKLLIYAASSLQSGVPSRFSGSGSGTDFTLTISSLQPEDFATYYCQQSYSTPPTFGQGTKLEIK
binds: [28] | [29] | [30] | [31] | [32] | [33] | [34] | [35] | [36]
